This note sets out measurements from US11733246B2, “Compositions, imaging, and therapeutic methods targeting folate receptor 1 (FOLR1)” (Indi Molecular, Inc., priority 2020, dated 2023).

Read-outs that look alike come from different tables or passages of the source. Numbered stars: 1 amine (or outer) side, 2 acyl side, 3 side chain; on linkers, the order of the positions; unused ones are H or OH. Bridge positions count the residues as written; N and C are the ends. Square brackets hold non-standard residues; d marks the D form. Triazole bridges read from a SMILES are 1,4-linked. Peptide text beside a SMILES is read from it. * marks the point of attachment. DOTA = O=C(O)CN1CCN(CC(=O)O)CCN(CC(=O)*)CCN(CC(=O)O)CC1; Pteroyl = Nc1nc2ncc(CNc3ccc(C(=O)*)cc3)nc2c(=O)[nH]1; Biotin = O=C1N[C@H]2[C@H](CS[C@H]2CCCCC(=O)*)N1; Butanoyl(4-(4-I-phenyl)) = O=C(CCCc1ccc(I)cc1)*; Butanoyl(4-(4-MePh)) = Cc1ccc(CCCC(=O)*)cc1; Lys(N3) = [N-]=[N+]=NCCCC[C@H](N)C(=O)O; γGlu = O=C(O)[C@H](CCC(=O)[*:2])N[*:1]; AEEEA = NCCOCCOCCOCC(=O)O; Pra = C#CC[C@H](N)C(=O)O

One may read the EC50 as the concentration that produces a half-maximal response. By fraction unbound is commonly meant the share of the substance not bound to proteins or other matrix. Broadly, the half-life is how long it takes for the measured level to halve. Higher therefore signals slow loss.

Data set [1] in a line: Plasma protein binding (equilibrium dialysis), human. The format is in vitro ADME. The method in brief: (§1)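 Equilibrium dialysis across 12-14 kDa cellulose membranes; test articles at 2 μM in mouse or human plasma adjusted to pH 7.0-8.0, in triplicate. Dialysed 4 hours at 37° C. with slow shaking; both sides quantified by LC-MS/MS to give fraction bound.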
For orientation: Equilibrium dialysis compares concentrations on both sides of a semipermeable membrane.

The subject of a further data set is human plasma proteins. The data set is described as above. Format: in vitro ADME. The conditions noted are these: human, plasma. The method in brief: as §1
The nature of data set [2]: Plasma protein binding (equilibrium dialysis), mouse. Format: in vitro ADME, CD-1 mouse. The essentials:
as §1

Another data set concerns mouse plasma proteins. The description is as above. The conditions noted are these: mouse, plasma. The format is in vitro ADME, CD-1 mouse. The method in brief:
as §1

The target in another data set is human recombinant NEP (Homo sapiens, UniProt P08473). Format: biochemical. The essentials:
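Peptide bearing GFK linker (10 μM) incubated with recombinant human NEP (10, 1, 0.1, 0.01 nM or none) at 37° C. for 1 h. Cleavage tracked by MALDI-MS, cleaved adduct identified by mass, and by HPLC as parent-peak depletion with new-peak appearance; non-cleavable PEG3 linker assayed for specificity.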

The target in another data set is T1, FOLR1 (Homo sapiens, UniProt P15328).
T1 construct: His; purchased SinoBiological 11241-H08H
Briefly: ELISA assay of FOLR1 binding. The source says:
FIG. 5 is a diagram of ELISA assay of FOLR1 binding of heterobiligands.
Nonclinical studies were first conducted with Folate-hshta-PEG10-PEG10-K(Biotin), where Folate-hshta is the targeting heterobiligand, PEG10 is a deca(ethylene glycol) linker, and K(Biotin) is the detection label.

The target of data set [3] is mouse recombinant FOLR1 (rMuFOLR1) (Mus musculus, UniProt P35846). The data set is described as follows: ELISA binding to mouse recombinant FOLR1. The source says:
Further evaluation of the folate-hshta (SEQ ID NO:6) Nterm heterobiligand depended on cross reactivity with mouse recombinant FOLR1 (rMuFOLR1). The heterobiligand binds to both species' variants of FOLR1 with high affinity. This observation was expected given the high homology between the two variants (approximately 92%).

The conditions of data set [4]: human, plasma, Plasma Stability (t 1/2).
Experimental: (§2) Plasma was thawed in a 37° C. water bath. Residual clots were removed via centrifugation at 4000 rpm for 5 minutes. The pH of the plasma was adjusted to 7.4 if required. Test articles were diluted to 100 μM by diluting a 1 mM working solution (in DMSO) with 45% methanol in water. To 98 μL of plasma was added 2 μL of the 100 μM solution, resulting in 2 μM final concentration of the test article. Samples were incubated at 37° C. in a water bath. At the indicated time points (0, 10, 30, 60, 120 minutes) 100 μL of 4% H3PO4 was added followed by 800 μL of stop solution (200 ng/mL tolbutamide and 200 ng/mL labetalol in 100% acetonitrile). The samples were centrifuged and the plasma protein-free supernatant (100 μL) was subjected to LC-MS/MS analysis.
The conditions of data set [5]: mouse, plasma, Plasma Stability (t 1/2).
Experimental: as §2
Data set [6] in a line: in vitro. The conditions noted are these: human, plasma, pH 7.4, Plasma Stability (t 1/2).
Experimental: as §2
Data set [7] can be described thus: in vitro. The conditions noted are these: CD-1, mouse, plasma, pH 7.4, Plasma Stability (t 1/2).
Experimental: as §2

human recombinant NEP, sequence (P08473 whole entry): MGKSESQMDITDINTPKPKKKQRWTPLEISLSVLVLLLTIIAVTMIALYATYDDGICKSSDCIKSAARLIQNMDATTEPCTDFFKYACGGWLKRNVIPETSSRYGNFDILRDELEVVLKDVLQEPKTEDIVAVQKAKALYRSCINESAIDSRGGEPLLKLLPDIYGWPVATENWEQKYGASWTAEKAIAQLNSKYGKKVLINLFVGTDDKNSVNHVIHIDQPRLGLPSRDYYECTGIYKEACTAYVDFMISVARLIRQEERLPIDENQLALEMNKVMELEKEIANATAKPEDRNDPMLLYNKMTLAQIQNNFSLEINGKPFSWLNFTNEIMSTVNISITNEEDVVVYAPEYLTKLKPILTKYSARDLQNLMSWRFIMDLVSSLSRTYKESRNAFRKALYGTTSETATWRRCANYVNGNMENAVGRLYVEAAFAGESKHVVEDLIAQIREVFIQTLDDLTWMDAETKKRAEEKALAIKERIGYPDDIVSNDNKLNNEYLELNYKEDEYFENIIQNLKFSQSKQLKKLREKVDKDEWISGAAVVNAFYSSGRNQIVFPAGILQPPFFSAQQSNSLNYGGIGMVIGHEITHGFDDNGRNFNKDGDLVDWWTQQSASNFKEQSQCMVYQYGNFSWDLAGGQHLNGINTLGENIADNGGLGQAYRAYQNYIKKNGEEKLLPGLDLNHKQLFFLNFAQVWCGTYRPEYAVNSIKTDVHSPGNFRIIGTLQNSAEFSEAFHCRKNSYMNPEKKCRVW
T1 sequence (P15328 25-234): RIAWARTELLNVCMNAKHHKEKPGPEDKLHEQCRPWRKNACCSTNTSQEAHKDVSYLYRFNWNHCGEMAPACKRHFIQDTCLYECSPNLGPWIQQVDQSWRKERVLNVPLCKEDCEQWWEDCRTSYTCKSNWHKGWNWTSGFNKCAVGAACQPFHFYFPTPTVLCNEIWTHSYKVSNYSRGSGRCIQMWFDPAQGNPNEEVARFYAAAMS
mouse recombinant FOLR1 (rMuFOLR1), sequence (P35846 25-232): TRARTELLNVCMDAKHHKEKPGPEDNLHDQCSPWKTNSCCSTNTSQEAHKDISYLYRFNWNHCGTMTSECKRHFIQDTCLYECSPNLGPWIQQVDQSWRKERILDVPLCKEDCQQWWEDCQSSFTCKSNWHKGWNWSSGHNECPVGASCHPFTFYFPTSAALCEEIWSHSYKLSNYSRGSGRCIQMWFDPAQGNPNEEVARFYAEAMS

As for `C[C@H](O)[C@H]1NC(=O)[C@@H](Cc2c[nH]cn2)NC(=O)[C@@H](CO)NC(=O)[C@@H](Cc2c[nH]cn2)NC(=O)[C@@H](NC(=O)CC[C@H](NC(=O)c2ccc(NCc3cnc4nc(N)[nH]c(=O)c4n3)cc2)C(=O)O)Cc2cn(nn2)CCCC[C@@H](C(=O)N[C@@H](CCCCNC(=O)CCCc2ccc(I)cc2)C(=O)NCC(=O)N[C@@H](Cc2ccccc2)C(=O)N[C@@H](CCCCNC(=O)CN2CCN(CC(=O)O)CCN(CC(=O)O)CCN(CC(=O)O)CC2)C(=O)O)NC(=O)[C@@H](C)NC1=O` [compound #1307, Fol-hshta-Lys(4-IPBA)-Gly-Phe-Lys(DOTA)] ({Pteroyl-γGlu}-[Pra][dH][dS][dH][dT][dA][Lys(N3)]K(Butanoyl(4-(4-I-phenyl)))GFK(DOTA)-OH; triazole 1-7), the values for the recovery in [1] and in [2] were 84.4% and 87.7%, respectively. In addition, the figures for the “Plasma % Bound” value in the data set on human plasma proteins and with mouse plasma proteins were “Hu: 99.50%” and “Mu: 99.60%”, respectively. Also, in the data set with human recombinant NEP, the “in vitro Assay Data (NEP assay)” value is listed as “Cleavage of -G-F-K-”.
In the case of `C[C@H](O)[C@H]1NC(=O)[C@@H](Cc2c[nH]cn2)NC(=O)[C@@H](CO)NC(=O)[C@@H](Cc2c[nH]cn2)NC(=O)[C@@H](NC(=O)COCCOCCOCCNC(=O)CCCC[C@@H]2SC[C@@H]3NC(=O)N[C@@H]32)Cc2cn(nn2)CCCC[C@@H](C(N)=O)NC(=O)[C@@H](C)NC1=O` [hshta] ({Biotin-AEEEA}-[Pra][dH][dS][dH][dT][dA][Lys(N3)]-NH2; triazole 1-7), the half-maximal effective concentration (EC50) on FOLR1 (Human FOLR1, read-out: Ec50) turned out to be 3.4 µM; on FOLR1 (read-out: EC50 (ELISA, FOLR1)), 3.92 µM; in [3] it was 2.1 µM.
As to `Cc1ccc(CCCC(=O)NCCCC[C@H](NC(=O)COCCOCCOCCNC(=O)[C@@H]2CCCCn3cc(nn3)C[C@H](NC(=O)CC[C@H](NC(=O)c3ccc(NCc4cnc5nc(N)[nH]c(=O)c5n4)cc3)C(=O)O)C(=O)N[C@H](Cc3c[nH]cn3)C(=O)N[C@H](CO)C(=O)N[C@H](Cc3c[nH]cn3)C(=O)N[C@H]([C@H](C)O)C(=O)N[C@H](C)C(=O)N2)C(=O)N[C@@H](CCCCNC(=O)CN2CCN(CC(=O)O)CCN(CC(=O)O)CCN(CC(=O)O)CC2)C(N)=O)cc1` [compound #2809, Fol-hshta-PEG3-Lys(4-MPBA)-Lys(DOTA)] ({Pteroyl-γGlu}-[Pra][dH][dS][dH][dT][dA][Lys(N3)][AEEEA]K(Butanoyl(4-(4-MePh)))K(DOTA)-NH2; triazole 1-7), the recovery was determined as 85.8% in [1] and 108% in [2]. In addition, the fraction unbound worked out at 0.167 in data set [1] (human, plasma) and 0.0791 in [2] (mouse, plasma). Besides, the “NEP-mediated cleavage (site / susceptibility)” value in the data set with human recombinant NEP is given as “unchanged”. In the data set with human recombinant NEP, the “in vitro Assay Data (NEP assay)” value is recorded as “resistant to NEP”. Moreover, the half-life in data set [4] and in [5] was above 4.82 h in each case.
For the compound `C[C@H](O)[C@H]1NC(=O)[C@@H](Cc2cnc[nH]2)NC(=O)[C@@H](CO)NC(=O)[C@@H](Cc2cnc[nH]2)NC(=O)[C@@H](NC(=O)CC[C@H](NC(=O)c2ccc(NCc3cnc4nc(N)[nH]c(=O)c4n3)cc2)C(=O)O)Cc2cn(nn2)CCCC[C@@H](C(=O)NCC(=O)N[C@@H](Cc2ccccc2)C(=O)N[C@@H](CCCCNC(=O)CN2CCN(CC(=O)O)CCN(CC(=O)O)CCN(CC(=O)O)CC2)C(=O)O)NC(=O)[C@@H](C)NC1=O` [compound #7327, Fol-hshta-Gly-Phe-Lys(DOTA)] ({Pteroyl-γGlu}-[Pra][dH][dS][dH][dT][dA][Lys(N3)]GFK(DOTA)-OH; triazole 1-7), the recovery at 4 h, 2 μM in data set [1] (human) is 113%; in data set [2] (CD-1, mouse), 102%. In addition, the fraction unbound at 4 h, 2 μM is 0.597 in data set [1] (human, plasma) and 0.591 in data set [2] (CD-1, mouse, plasma). The “in vitro Assay Data (NEP assay)” value with human recombinant NEP is “Cleavage of -G-F-K-”. Besides, the half-life at 2 μM in the data set “in vitro [6]” and in the data set “in vitro [7]” was above 115 h throughout.
